From patent US20230041134A1 (Genentech, published 2023) come the findings set out here.

Positions count from the first letter of the chain named. Numbers in names are those of the source.

The target of test [1] is T1, Her2 extracellular domain (Her2 ECD) (human, UniProt P04626 23-652).
T1 construct: For the crystal structure it was expressed in CHO cells and the complex was enzymatically deglycosylated; also called biotinylated Her2 ECD
Nature of the test: SPR (BIAcore T100), IgG, 1:1 Langmuir fit.
Procedure: (§1) The affinity of each 7C2 IgG variant for Her2 was determined by surface plasmon resonance using a BIAcoreT100. Biacore Series S CMS sensor chips were immobilized with monoclonal mouse anti-human IgG (Fc) antibody (Human antibody capture kit, GE Healthcare). Serial 3-fold dilutions of each 7C2 variant were injected at a flow rate of 30 μl/min. Each sample was analyzed with 3-minute association and 10-minute dissociation. After each injection the chip was regenerated using 3 M MgCl₂. Binding response was corrected by subtracting the RU from a flow cell capturing an irrelevant IgG at similar density. A 1:1 Languir model of simultaneous fitting of kₒₙ and koff was used for kinetics analysis.

Test [2] has as its target T1, Her2 extracellular domain (Her2 ECD). Put plainly: SPR (BIAcore T100), IgG, 1:1 Langmuir fit. The source holds these as a separate data set.
Procedure: as §1
Test [3] has the same target. Put plainly: SPR (BIAcore T100), IgG on anti-human IgG (Fc) capture chip, Her2 ECD, 1:1 Langmuir fit.
Procedure: as §1

B1: mu7C2.B9 (antibody, V domains shown)
VH: QVQLQQPGAELVRPGASVKLSCKASGYSFTGYWMNWLKQRPGQGLEWIGMIHPSDSEIRANQKFRDKATLTVDKSSTTAYMQLSSPTSEDSAVYYCARGTYDGGFEYWGQGTTLTVSS
VL: DIVLTQSPASLVVSLGQRATISCRASQSVSGSRFTYMHWYQQKPGQPPKLLIKYASILESGVPARFSGGGSGTDFTLNIHPVEEDDTATYYCQHSWEIPPWTFGGGTKLEIK
notes: Assessed as IgG by SPR on an anti-human IgG (Fc) capture chip; also called murine 7C2.B9; chimeric mu7C2.B9
The molecule B1 displayed a Kd in test [1] of 8 nM.

B2: 7C2.v2.1 (antibody, V domains shown)
VH: EVQLVQSGAEVKKPGASVKVSCKASGYSFTGYWMNWVRQAPGQGLEWIGMIHPSDSEIRANQKFRDRVTITRDTSTSTAYLELSSLRSEDTAVYYCARGTYDGGFEYWGQGTLVTVSS
VL: DIVMTQSPDSLAVSLGERATINCRASQSVSGSRFTYMHWYQQKPGQPPKLLIKYASILESGVPDRFSGSGSGTDFTLTISSLQAEDVAVYYCQHSWEIPPWTFGQGTKVEIK
notes: Expressed as IgG for SPR; also called hu7C2.v2.1
In the case of B2, in test [2], the Kd was 15.5 nM, the koff came out at 0.0041 s⁻¹ and the kon amounted to 260000 M⁻¹ s⁻¹. In test [3], this molecule returned a Kd of 16 nM.

B3: 7C2.v2.3 (antibody, V domains shown)
VH: B2 VH with V37L, V68A, I70L, R72V, T74K
VL: B2 VL
Consider B3, for which, in test [3], the affinity, expressed as Kd, was 10 nM.

B4: 7C2.v1.3 (antibody, V domains shown)
VH: B2 VH with V37L, V68A, I70L, R72V, T74K
VL: B2 VL with K53Y
As to B4, the Kd in test [3] is 11 nM.

B5: hu7C2.v2.2.LA (antibody, human IgG1, kappa, V domains shown)
VH: B2 VH with S54L, S56A, R72V
VL: DIVMTQSPDSLAVSLGERATINCRASQSVSGSRFTYMHWYQQKPGQPPKLLIKYASILESGVPDRFSGSGSGTDFTLTISSLQAEDVAVYYCQHSWEIPPWTFGQGTKVEIKR
notes: IgG1 kappa; Measured as IgG by SPR; also called humanized 7C2.v2.2.LA; hu7C2.v2.2.LA (S53L, S55A)
In turn, B5 displayed a Kd in test [1] of 3 nM.

B6: 7C2.v1.2 (antibody, V domains shown)
VH: B2 VH with R72V
VL: B2 VL with K53Y
On to B6, for which, in test [3], the Kd was found to be 13 nM.

B7: 7C2.v3.3 (antibody, V domains shown)
VH: B2 VH with V37L, V68A, I70L, R72V, T74K
VL: B2 VL with M4L
In the case of B7, the affinity in test [3], expressed as Kd, was 9 nM.

B8: hu7C2.v2.2 (antibody, V domains shown)
VH: B2 VH with R72V
VL: B2 VL
notes: Expressed as IgG; It is the parent of hu7C2.v2.2.LA, which adds S53L and S55A in HVR-H2
In the case of B8, the Kd in test [3] and in test [1] was 11 nM throughout.

B9: 7C2.v3.1 (antibody, V domains shown)
VH: B2 VH
VL: B2 VL with M4L
notes: Expressed as IgG
Take B9: in test [3], binding was characterised by a dissociation constant (Kd) of 15 nM.
